Test [1] deals with 32 different targets including GPC3, GPC5, and other TNF receptor proteins. Kind of test: off-target ELISA on 32 coated targets, binder at 10 nM, signals normalized to control antibody SEQ ID NOs: 106 and 107 and summed. A general note: In an ELISA, binding on a coated surface is turned into a signal by an enzyme label.
The target is the same in test [2]. Kind of test: off-target ELISA on 32 coated targets, binder at 100 nM, signals normalized to control antibody SEQ ID NOs: 106 and 107 and summed.
Test [3] shares this target. Kind of test: off-target ELISA on 32 coated targets, sum of the ratios at 100 nM and 10 nM.

B1: GPC3 antibody as included in the fusion protein (SEQ ID NOs: 81 and 82) (antibody, human IgG4 S228P, kappa, F234A L235A, V domains shown)
VH: QVQLVQSGAEVKKPGASVKVSCKASGYTFTDYEMHWVRQAPGQGLEWMGALDPKTGDTAYSQKFKGRVTLTADKSTSTAYMELSSLTSEDTAVYYCTRFYSYTYWGQGTLVTLVS
VL: DVVMTQSPLSLPVTPGEPASISCRSSQSLVHSNRNTYLHWYLQKPGQSPQLLIYKVSNRFSGVPDRFSGSGSGTDFTLKISRVEAEDVGVYYCSQNTHVPPTFGQGTKLEIKR
In the case of B1, the cumulative binding ratio in test [1] came out at 48; in test [2], 81. Moreover, in test [3], the sum of cumulative binding ratios amounted to 129.

For the origin of these results see patent US20220153864A1.
